Tests used:
[1] = molecular target: human full-length CD45 extracellular domain (ECD) isoform RABC (human) (UniProt P08575); experiment: SPR; GE Biacore T100; about 200 RU of human CD45 ECD, E3/49K immobilised on an SA-chip, reference channel with an unrelated protein; HBS-P+; twofold serial dilutions, 30 s association, 30 ul/min, 25 °C
[2] = molecular target: human full-length CD45 extracellular domain (ECD) isoform RABC (human) (UniProt P08575); experiment: cryo-EM structure; fully glycosylated human CD45 ECD bound to E3/49K, purified by size exclusion chromatography; 0.01% FOM; 3.8-Å nominal resolution map

Chain of UniProt P08575 (P08575 26-577): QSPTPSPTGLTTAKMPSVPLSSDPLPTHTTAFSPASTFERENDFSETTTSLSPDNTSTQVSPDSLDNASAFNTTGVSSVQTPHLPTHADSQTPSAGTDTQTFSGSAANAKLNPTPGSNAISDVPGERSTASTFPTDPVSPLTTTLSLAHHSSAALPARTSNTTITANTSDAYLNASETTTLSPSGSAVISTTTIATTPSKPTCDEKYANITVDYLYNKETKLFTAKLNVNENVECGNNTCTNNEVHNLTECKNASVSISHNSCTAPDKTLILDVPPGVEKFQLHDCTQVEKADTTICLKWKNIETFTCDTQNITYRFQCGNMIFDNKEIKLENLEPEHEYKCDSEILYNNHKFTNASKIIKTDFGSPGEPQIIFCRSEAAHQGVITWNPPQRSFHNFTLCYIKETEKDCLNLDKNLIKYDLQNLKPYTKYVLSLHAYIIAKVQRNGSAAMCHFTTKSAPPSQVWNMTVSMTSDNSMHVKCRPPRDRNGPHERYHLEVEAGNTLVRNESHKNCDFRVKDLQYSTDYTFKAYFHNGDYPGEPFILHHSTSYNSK

| Substance | Kd [1] [nM] | stoichiometry N (CD45 per E3/49K) [2] | koff [1] [s⁻¹] | kon [1] [M⁻¹ s⁻¹] |
| --- | --- | --- | --- | --- |
| E3/49K R2 domain (domain or fragment) | 145 |  |  |  |
| E3/49K R1 domain (domain or fragment) | 74 |  |  |  |
| adenoviral D19a strain E3/49K ECD (domain or fragment) | 0.3 | 2 | 0.000598 | 2.08e+06 |
